T1: HUMAN B7H3 (Biacore analyte) (human) (UniProt Q5ZPR3)
T1 sequence (looked up): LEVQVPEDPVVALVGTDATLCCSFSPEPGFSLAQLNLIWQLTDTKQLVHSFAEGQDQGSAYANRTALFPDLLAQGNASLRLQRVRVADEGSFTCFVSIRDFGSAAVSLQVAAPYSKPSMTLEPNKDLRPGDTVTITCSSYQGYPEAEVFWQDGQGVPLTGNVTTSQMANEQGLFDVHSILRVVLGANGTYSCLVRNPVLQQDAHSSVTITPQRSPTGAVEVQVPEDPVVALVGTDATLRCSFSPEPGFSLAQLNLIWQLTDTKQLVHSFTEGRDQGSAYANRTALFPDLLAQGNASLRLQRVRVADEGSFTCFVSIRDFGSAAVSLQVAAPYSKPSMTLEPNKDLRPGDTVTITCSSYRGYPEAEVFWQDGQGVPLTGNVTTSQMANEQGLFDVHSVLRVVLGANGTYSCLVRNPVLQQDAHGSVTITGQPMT

B1: Enoblituzumab (antibody, part only; not given: constant regions, V domains shown, not shown: another chain or arm of the molecule)
VH: EVQLVESGGGLVQPGGSLRLSCAASGFTFSSFGMHWVRQAPGKGLEWVAYISSDSSAIYYADTVKGRFTISRDNAKNSLYLQMNSLRDEDTAVYYCGRGRENIYYGSRLDYWGQGTTVTVSS
VL: DIQLTQSPSFLSASVGDRVTITCKASQNVDTNVAWYQQKPGKAPKALIYSASYRYSGVPSRFSGSGSGTDFTLTISSLQPEDFATYYCQQYNNYPFTFGQGTKLEIK
B2: 10-B9-D10-A12 (antibody, V domains shown)
VH: EVQLQESGPELVRPGVSVKISCKGSGYTFTDYTMHWVKLSHAKSLEWIGVISTYYGNTNYNQKFKGKATLTVDKSSSTAYMELARLTSEDSAIYYCARASYGSGYGPYYWYFDVWGAGTTVTVSS
VL: DIQMTQSPASLFASVGETVTITCRASEKIYSYLAWYFQKQGKSPQFLVYNANALAEGVPSRFSGSGSGTQFSLKINSLQPEDFGTYYCQHHYGTPVTFGAGSKLELK

Experiments:
[1] = target: human CD276 protein (human) (UniProt Q5ZPR3); test: cell-based or functional assay
[2] = target: T1, HUMAN B7H3 (Biacore analyte) (human); test: SPR, Biacore 8K, antibody captured, B7H3 as analyte, 1:1 binding
[3] = target: human CD276 protein (human) (UniProt Q5ZPR3); test: FACS on SKOV3 cells
[4] = target: mouse CD276 protein (mouse) (UniProt Q8VE98); test: FACS on CHO-S-mCD276 cells
mouse CD276 protein (mouse), sequence (Q8VE98 29-316): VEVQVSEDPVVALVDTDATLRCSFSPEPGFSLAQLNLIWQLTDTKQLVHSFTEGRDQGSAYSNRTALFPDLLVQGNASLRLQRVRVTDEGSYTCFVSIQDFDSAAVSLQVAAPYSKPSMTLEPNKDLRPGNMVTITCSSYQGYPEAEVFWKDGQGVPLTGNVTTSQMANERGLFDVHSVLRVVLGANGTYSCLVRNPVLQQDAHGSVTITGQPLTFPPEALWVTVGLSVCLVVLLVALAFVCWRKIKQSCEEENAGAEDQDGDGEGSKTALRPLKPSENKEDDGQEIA

Binder | EC50 of antibody induced ADCC effect on SKOV3 [1] [µg/mL] | EC50 of antibody induced CDC effect [1] [nM] | Top cytotoxicity (%), CDC [1] [%] | Kd [2] [nM] | koff [2] [s⁻¹] | kon [2] [M⁻¹ s⁻¹] | EC50 [3] [µg/mL] | MFI (Max) [3] | FACS MFI [4]
B1 | 0.0864 | 7.28 | 80.1 | 3.8 | 0.000486 | 128000 | 0.985 | 830 | –
B2 | – | – | – | – | – | – | – | – | 3170
